T1: DNA binding domain of recombinant rat androgen receptor (AR) / calreticulin (p60) (Homo sapiens, UniProt P27797)
T1 construct: endogenous in cells
T1 sequence (P27797 18-417): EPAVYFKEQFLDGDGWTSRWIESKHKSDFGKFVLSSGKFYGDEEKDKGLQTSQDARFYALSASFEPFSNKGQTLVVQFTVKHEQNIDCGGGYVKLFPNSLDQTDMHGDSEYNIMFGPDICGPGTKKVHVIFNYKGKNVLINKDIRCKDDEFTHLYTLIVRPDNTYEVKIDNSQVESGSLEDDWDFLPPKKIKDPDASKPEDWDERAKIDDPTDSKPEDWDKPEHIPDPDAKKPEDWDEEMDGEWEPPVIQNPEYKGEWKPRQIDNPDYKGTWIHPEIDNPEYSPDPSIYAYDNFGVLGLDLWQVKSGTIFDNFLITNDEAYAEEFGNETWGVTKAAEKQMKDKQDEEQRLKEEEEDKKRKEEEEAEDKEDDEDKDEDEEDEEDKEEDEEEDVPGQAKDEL

B1: p60 (calreticulin): 60 kDa protein, calreticulin, purified by affinity chromatography on KLGFFKR-sepharose (protein)
chain: T1 sequence (P27797 18-417)

Legend:
[1] = system: calreticulin mRNA in MC3T3 cells; experiment: Calreticulin mRNA levels in MC3T3 cells; assay type: cell-based, mouse
Description: Calreticulin expression levels in these cell types are determined at the outset by Western blot analysis. In addition to utilizing these stable expression vectors, we construct inducible calreticulin expression sense- and antisense-cDNA expression vectors driven by strong metal inducible promoters (Filmus et al., 1992). The inducible vectors allow us to turn calreticulin expression on or off at will. In the MC3T3 cells, 1,25,dihydroxyvitamin D3 has a proliferative effect on these cells at subconfluency, but when added to confluent, mineralizing cultures, it enhances the mineralization process. The transfected cells are analyzed for the level of calreticulin expression by Western blot analysis as described by us previously as well as by Northern blot analysis for mRNA levels. The effect of up or down regulation of calreticulin is determined in terms of the above mentioned responses to 1,25 dihydroxyvitamin D3. In addition, the effect on the expression of vitamin D responsive genes, such as c-fos and integrin b3 subunit (Xu et al., 1993) is determined by Northern blot and Western blot analysis. […] The luciferase activity in mock transfected versus calreticulin sense- and antisense-cDNA transfected cells (stable and inducible) is then be determined as described by us previously (see Example 6). […]

[2] = target: T1, DNA binding domain of recombinant rat androgen receptor (AR) / calreticulin (p60); experiment: Gel mobility shift (gel retardation) assay: calreticulin (p60) inhibition of AR-ARE binding and its reversal by peptides/antibody; conditions: protein pre-incubated with AR 30 min at 4° C.
Description: To determine whether p60 (calreticulin) could directly modulate the binding of nuclear hormone receptors to DNA via the KXFFX^1R [SEQ ID NO:1] sequence, the interaction of the DNA binding domain of recombinant androgen receptor with its hormone responsive element was analyzed by carrying out gel mobility shift assays.
As described in Rennie et al., 1993, DNA binding domain of recombinant rat androgen receptor was prepared as a GST-fusion protein using the pGEX-3X vector and purified by glutathione-agarose affinity chromatography. p60 (calreticulin) was purified by affinity chromatography on KLGFFKR-sepharose [SEQ ID NO:7], followed by gel electrophoresis as described in detail in Rojiani et al., 1991. […] Recombinant calreticulin (GST-fusion protein) was prepared as described by Baksh and Michalak, 1991. Gel retardation assays were carried out as described by Rennie et al., 1993. To analyze the effect of p60, or recombinant calreticulin, on receptor-DNA binding activity, the AR was pre-incubated with p60 for 30 min at 4° C. To analyze the effects of synthetic peptides, anti-calreticulin antibody, and non-immune IgG on p60 inhibition of AR-ARE binding, the peptide, antibody or IgG were pre-incubated with p60 for 30 min at 4° C. The androgen receptor preparation was then added to these mixtures and further incubated for 30 min at 4° C.
Affinity purified DNA binding domain of the recombinant rat androgen receptor (AR) was pre-incubated with or without the indicated concentrations of purified p60 at 4° C. for 30 min. After this pre-incubation the reaction mixtures were incubated with ^32P-labeled 26 base pair ARE (Rennie et al., 1993) (androgen response element), and analyzed by gel retardation assay. The sequence of the ARE used was [SEQ ID NO:28]:
Amino acids in the KXFFX^1R [SEQ ID NO: 1] sequence were modified. Androgen receptor and calreticulin were incubated in the presence of the modified peptides and allowed to interact with an oligonucleotide containing the androgen response element (the method of this assay is described in Example 3). The interaction was analyzed by gel mobility shaft assay (FIGS. 5A-5C).

AP-1 = experiment: Binding of AP-1 to DNA

Row | Molecule | Calreticulin mRNA levels [1] | Effect of protein on AR-ARE (receptor-DNA) complex formation [2] | Effect on binding of AP-1 to DNA (AP-1)
1 | C=C1/C(=C\C=C2/CCC[C@]3(C)[C@@H]([C@H](C)CCCC(C)(C)O)CC[C@@H]23)C[C@@H](O)C[C@@H]1O [1,25,dihydroxyvitamin D3] | upregulates calreticulin mRNA levels |  | 
2 | B1 |  | dose-dependent inhibition in the formation of this complex | did not effect the binding of AP-1 to DNA
